Assay [1] concerns the target AgrA full length (AgrAFL) (Staphylococcus aureus) (UniProt P0A0I7). Description: BLI. As to conditions: domain or fragment.
For assay [2] the target is unchanged. Put plainly: BLI; DTT. The settings on record: domain or fragment.
For assay [3] the target is unchanged. Description: BLI; H2O2. The settings on record: domain or fragment.
For assay [4] the target is unchanged. Description: BLI; AgrAFL (ligand) immobilised on amine reactive 2nd generation (AR2G) tips; AgrC proteins as analytes at different concentrations; 20 mM HEPES pH 7.6, 200 mM KCl, 2% glycerol; AgrC proteins incubated separately with 5 uM DTT and H2O2; Octet Data Analysis Software v 8.0. In general terms: In BLI a coated tip is dipped into the sample, and binding shifts an interference pattern.

For assay [5], the target named is T1, AgrA full length (AgrAFL) (Staphylococcus aureus, UniProt P0A0I7 1-238).
T1 chain: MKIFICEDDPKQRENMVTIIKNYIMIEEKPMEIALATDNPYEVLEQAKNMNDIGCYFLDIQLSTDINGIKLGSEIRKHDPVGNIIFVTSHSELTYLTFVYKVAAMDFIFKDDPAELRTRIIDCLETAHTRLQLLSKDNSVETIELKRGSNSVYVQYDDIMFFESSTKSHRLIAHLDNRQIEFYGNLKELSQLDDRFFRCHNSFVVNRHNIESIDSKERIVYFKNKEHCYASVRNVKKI
Description: BLI.

The target of assay [6] is T1, AgrA full length (AgrAFL). Put plainly: BLI; DTT.
Assay [7] concerns the target T1, AgrA full length (AgrAFL). Description: BLI; H2O2.

One may read the Kd as a measure of binding affinity in units of concentration. A higher Kd goes with a looser complex. For recombinant AgrC Y223C protein, the values for the Kd in assay [1], in assay [2] and in assay [3] were 105 nM, 44.9 nM and 31.4 nM, respectively.

On to “recombinant AgrC Y223C protein (domain or fragment)”, for which the fold reduction in binding affinity against wild-type AgrC in assay [4] was under 10 fold.

B1: recombinant wild-type AgrC (cytosolic domain) (domain or fragment)
chain: KEMKYKRNQEEIETYYEYTLKIEAINNEMRKFRHDYVNILTPLSEYIREDDMPGLRDYFNKNIVPMKDNLQMNAIKLNGIENLKVREIKGLITAKILRAQEMNIPISIEIPDEVSSINLNMIDLSRSIGIILDNAIEASTEIDDPIIRVAFIESENSVTFIVMNKCADDIPRIHELFQESFSTKGEGRGLGLSTLKEIADNADNVLLDTIIENGFFIQKVEIINN
For B1, the Kd in assay [5] worked out at 93.1 nM; in assay [6], 99.8 nM; in assay [7] it was 4.21 nM.

The values above are taken from article PMC4980769 (2016).
